Source: patent publication US10118947B2, “Modulation of structured polypeptide specificity” (BICYCLE THERAPEUTICS LIMITED, priority 2013, dated 2018)

What follows are sequences tested against T1, human plasma Kallikrein (Homo sapiens, UniProt P03952) (assay: Phage selections against human plasma Kallikrein (abundance in selection output)). Conditions: Table 17; relative abundance in the total selection outputs.
T1 construct: purchased Stratech, UK
Format: binding
Procedure: Glycerol stocks of phage libraries were diluted to OD600=0.1 in 500 ml 2YT/chloramphenicol (30 μg/ml) cultures and phage were produced at 30° C. over night (15-16 hrs). Phage were purified and chemically modified as described in Heinis, et al., Nat Chem Biol 2009, 5 (7), 502-7 Biotinylated hPK (3 μg) (IHPKA, from human plasma, Innovative Research, Novi, Mich., USA) was incubated with 50 μl pre-washed magnetic streptavidin beads (Dynal, M-280 from Invitrogen, Paisley, UK) for 10 minutes at RT. Beads were washed 3 times prior to blocking with 0.5 ml washing buffer (10 mM Tris-Cl, pH 7.4, 150 mM NaCl, 10 mM MgCl2, 1 mM CaCl2) containing 1% BSA and 0.1% Tween 20 for 30 minutes at RT with rotation. […] Blocked beads were then mixed with the blocked chemically modified phage and incubated for 30 minutes on a rotating wheel at
RT. Beads were washed 8 times with washing buffer containing 0.1% Tween 20 and twice with washing buffer before incubation with 100 μl of 50 mM glycine, pH 2.2 for 5 minutes. Eluted phage were transferred to 50 μl of 1 M Tris-Cl, pH 8 for neutralization, incubated with 30 ml TG1 cells at OD600=0.4 for 90 minutes at 37° C. and the cells were plated on large 2YT/chloramphenicol plates. One or two additional rounds of panning were performed using the same procedures. In the second round of selection, neutravidin-coated magnetic beads were used to prevent the enrichment of streptavidin-specific peptides. The neutravidin beads were prepared by reacting 0.8 mg neutravidin (Pierce, Rockford, Ill., USA) with 0.5 ml tosyl-activated magnetic beads (Dynal, M-280 from Invitrogen, Paisley, UK) according to the supplier's instructions.
The WPAR (SEQ ID No. 19) motif identified from Example 1 was analysed in the context of the 06-34-03 peptide, in order to identify alternatives or improvements to the WPAR motif. A library was constructed where positions 1, 6, 7, 8, 9 &10 of 06-34-03 were fixed and positions 2, 3, 4 & 5 were randomised (see ‘Randomisation of peptide domains—Library construction’ in Methods above). Selections against human plasma Kallikrein were performed at a variety of stringencies (see Phage selections' in Methods above). All output sequences were identified and analysed for target binding (see ‘Randomisation of peptide domains—Assay of binding of individual clones’ in Methods above). Table 17 lists each unique sequence, its relative abundance in the selection output (frequency), and a rank number according to target binding strength.

T1 sequence (P03952 20-638): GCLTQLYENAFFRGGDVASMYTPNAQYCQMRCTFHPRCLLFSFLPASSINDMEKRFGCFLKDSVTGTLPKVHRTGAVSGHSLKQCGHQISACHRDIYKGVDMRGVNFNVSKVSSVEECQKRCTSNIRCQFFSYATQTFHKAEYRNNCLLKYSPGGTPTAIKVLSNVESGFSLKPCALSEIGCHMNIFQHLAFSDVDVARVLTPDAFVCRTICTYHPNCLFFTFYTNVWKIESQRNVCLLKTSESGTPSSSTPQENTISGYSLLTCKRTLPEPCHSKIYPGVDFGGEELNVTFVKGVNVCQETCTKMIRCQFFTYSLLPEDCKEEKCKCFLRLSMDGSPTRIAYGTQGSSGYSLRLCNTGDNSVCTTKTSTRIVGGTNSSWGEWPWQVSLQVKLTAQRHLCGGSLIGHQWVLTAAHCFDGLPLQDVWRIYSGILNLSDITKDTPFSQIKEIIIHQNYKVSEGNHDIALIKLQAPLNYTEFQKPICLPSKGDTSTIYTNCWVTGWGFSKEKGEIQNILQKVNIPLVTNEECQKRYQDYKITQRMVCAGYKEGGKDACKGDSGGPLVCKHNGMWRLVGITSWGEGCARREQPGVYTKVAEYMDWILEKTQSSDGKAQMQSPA

**Q.** Which FREQUENCY does the source give for CSWQARCTHQDLC here?
**A.** 1

**Q.** CSWPSRCTHQDLC was tested. Which FREQUENCY did it give?
**A.** 51

**Q.** CSQVVGCTHQDLC was tested. Which FREQUENCY did it give?
**A.** 1

**Q.** How did the FREQUENCY turn out when CSLPFKCTHQDLC was run?
**A.** 1

**Q.** Which FREQUENCY does the source give for CSFLYKCTHQDLC here?
**A.** 2

**Q.** CSHPYRCTHQDLC was tested. Which FREQUENCY did it give?
**A.** 2

**Q.** CSWSYRCTHQDLC was tested. Which FREQUENCY did it give?
**A.** 1

**Q.** With CSYPIRCTHQDLC as the sequence, how does the FREQUENCY read?
**A.** 2

**Q.** CSFPWRCTHQDLC was tested. Which FREQUENCY did it give?
**A.** 1

**Q.** Which FREQUENCY does the source give for CSWPFRCTHQDLC here?
**A.** 7

**Q.** CSWSARCTHQDLC was tested. Which FREQUENCY did it give?
**A.** 10

**Q.** Which FREQUENCY does the source give for CSFPIRCTHQDLC here?
**A.** 1

**Q.** CSIPFKCTHQDLC was tested. Which FREQUENCY did it give?
**A.** 1

**Q.** How did the FREQUENCY turn out when CSWAARCTHQDLC was run?
**A.** 1

**Q.** With CSLFDHCTHQDLC as the sequence, how does the FREQUENCY read?
**A.** 1

**Q.** For CSFPFKCTHQDLC, which FREQUENCY is on record?
**A.** 4

**Q.** With CSWLARCTHQDLC as the sequence, how does the FREQUENCY read?
**A.** 8

**Q.** How did the FREQUENCY turn out when CSWPYRCTHQDLC was run?
**A.** 3

**Q.** How did the FREQUENCY turn out when CSHRRWCTHQDLC was run?
**A.** 1

**Q.** Which FREQUENCY does the source give for CSFPFWCTHQDLC here?
**A.** 1

**Q.** With CSYPYRCTHQDLC as the sequence, how does the FREQUENCY read?
**A.** 2
